From patent US5854216A, “Marker for growth hormone-releasing factor receptors” (Universite de Montreal, priority 1996, dated 1998)
Read-outs that look alike come from different tables or passages of the source. Ends that are not written are not given here. * marks the point of attachment. FITC = O=C1OC2(c3ccc(O)cc3Oc3cc(O)ccc32)c2ccc(NC(=S)*)cc21; X1 = O=C(O)c1cc(C(=O)*)ccc1-c1c2ccc(=O)cc-2oc2cc(O)ccc12

Tests used:
[1] = target: T1, GRF receptors ([^125 I-Tyr^10 ]hGRF(1-44)NH2 binding sites in rat adenopituitary) (Rattus norvegicus, UniProt Q02644); experiment: Competitive binding assay with [^125 I-Tyr^10 ]hGRF(1-44)NH2 on anterior pituitary homogenates; details: for Relative affinity: ratio IC50 of hGRF(1-29)NH2 /IC50 analogue
T1 construct: from tissue; host or cells: rat anterior pituitary homogenate
T1 sequence (Q02644 23-423 isoform Q02644-2 limits assumed): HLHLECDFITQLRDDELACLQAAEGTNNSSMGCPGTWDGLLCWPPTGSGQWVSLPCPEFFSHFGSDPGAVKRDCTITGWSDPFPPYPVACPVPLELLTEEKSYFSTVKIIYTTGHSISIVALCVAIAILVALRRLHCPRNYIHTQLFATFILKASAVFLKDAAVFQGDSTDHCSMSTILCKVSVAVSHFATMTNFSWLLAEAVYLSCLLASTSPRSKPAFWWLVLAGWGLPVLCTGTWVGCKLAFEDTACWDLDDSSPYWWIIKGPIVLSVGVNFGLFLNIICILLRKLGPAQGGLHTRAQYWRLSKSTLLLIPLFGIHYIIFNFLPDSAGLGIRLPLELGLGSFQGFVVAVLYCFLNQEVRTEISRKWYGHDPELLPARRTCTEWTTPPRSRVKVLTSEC
Summary of the method: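 Rat anterior pituitary homogenates (70 to 75 μg protein) in 50 mM Tris-HCl pH 7.4 with 5 mM EDTA, 5 mM MgCl2, 0.42% BSA were competed with 35-50 pM radioligand against analogues at 0-1000 nM. Non-specific binding defined with 2.4 μM rGRF(1-29)NH2; 60 min at 23° C, stopped by centrifugation, pellet gamma-counted. hGRF(1-29)NH2 run in each experiment as reference.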

[2] = target: T2, GRF receptor (adenylate cyclase activity in rat adenopituitary) (Rattus norvegicus, UniProt Q02644); experiment: Adenylate cyclase assay on anterior pituitary homogenates (cAMP by HPLC); format: biochemical; details: for IC50: 50% of maximal cAMP accumulation induced by 1 μM hGRF(1-29)NH2; for Relative activity: ratio EC50 of hGRF(1-29)NH2 /EC50 analogue
T2 construct: from tissue; host or cells: rat anterior pituitary homogenate
T2 sequence (Q02644 23-423 isoform Q02644-2 limits assumed): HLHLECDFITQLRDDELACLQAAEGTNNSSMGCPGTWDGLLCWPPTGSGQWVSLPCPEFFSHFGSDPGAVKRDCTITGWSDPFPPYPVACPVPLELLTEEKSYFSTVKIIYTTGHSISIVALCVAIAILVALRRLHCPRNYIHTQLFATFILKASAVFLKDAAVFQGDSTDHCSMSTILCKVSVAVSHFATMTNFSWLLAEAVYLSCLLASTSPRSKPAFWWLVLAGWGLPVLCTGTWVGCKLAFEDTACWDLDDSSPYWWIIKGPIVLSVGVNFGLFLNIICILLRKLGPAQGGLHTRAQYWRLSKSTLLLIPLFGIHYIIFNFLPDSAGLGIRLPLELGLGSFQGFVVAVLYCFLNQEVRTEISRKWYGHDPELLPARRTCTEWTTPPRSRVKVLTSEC
Experimental: The adenylate cyclase activity Nε-CF-[Lys^31 ]hGRF was performed on anterior pituitary homogenates as previously described (Lefrangois L. and Gaudreau P., J. Chromatogr., 1993, 619:116-120). Briefly, anterior pituitaries (pit.) were dissected out, rinsed and homogenized for 8 sec with a Micro Ultrasonic Cell Disrupter™, in ice-cold 20 mM Tris-HCl buffer (pH 7.5) containing 2 mM MgCl2 and 250 mM sucrose (1 pit./0.5 ml).
Samples of anterior pituitary homogenates (30-40 μg protein) were incubated in 1.5 ml Eppendorf™ tubes with 30 mM Tris-HCl, 5 mM MgCl2, 0.5 mM EGTA, containing 0.5 mM ATP, 1 mM IBMX, 10 μM GTP and an ATP regenerating system consisting of 2 mM creatine phosphate, 0.1 mg/ml creatine kinase and, 0.1 mg/ml myokinase in a final volume of 120 μl. Incubations were initiated by adding 20 μl of the homogenate to the reaction mixture which had previously been equilibrated at 37° C. for 2 min. The reactions were carried out for 8 min at 37° C. and stopped by heating the samples in boiling water for 4 min. Samples were centrifuged (12000 g, 5 min, 4° C.) and supernatants were filtered through 0.45 μm Millex HV4 ™ filters and transferred to autosampler vials for HPLC quantification of cAMP.

[3] = target: T3, GRF receptor of rat adenopituitary (rat, UniProt Q02644-2)
T3 sequence: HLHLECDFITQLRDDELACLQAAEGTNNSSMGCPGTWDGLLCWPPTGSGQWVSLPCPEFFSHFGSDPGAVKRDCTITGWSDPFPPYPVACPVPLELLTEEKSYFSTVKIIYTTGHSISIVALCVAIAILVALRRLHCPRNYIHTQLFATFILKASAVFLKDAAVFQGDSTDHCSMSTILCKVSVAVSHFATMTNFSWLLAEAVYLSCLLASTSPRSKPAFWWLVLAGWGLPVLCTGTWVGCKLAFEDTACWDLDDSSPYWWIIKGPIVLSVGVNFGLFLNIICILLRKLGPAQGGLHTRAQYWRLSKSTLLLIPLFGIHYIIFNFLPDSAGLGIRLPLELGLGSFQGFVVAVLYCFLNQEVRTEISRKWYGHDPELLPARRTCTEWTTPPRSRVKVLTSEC

[4] = target: T3, GRF receptor of rat adenopituitary; experiment: displacement of 125I-Tyr10 hGRF(1-44)NH2 from rat anterior pituitary homogenate
[5] = Solubility in water or buffer; format: physicochemical; details: distilled water or aqueous buffer
[6] = Storage stability / shelf life; format: physicochemical
[7] = Toxicity (statement only)
[8] = target: T3, GRF receptor of rat adenopituitary; remark: listed apart in the source
[9] = target: T3, GRF receptor of rat adenopituitary; experiment: displacement of 125I-Tyr10 hGRF(1-44)NH2 from rat anterior pituitary homogenate; remark: listed apart in the source
Experimental: (§1) The binding of [^125I-Tyr^10]hGRF(1–44)NH_2 was performed on anterior pituitary homogenates as previously described (Gaudreau P. et al., J. Biol. Chem., 1992, 35:1864–1869). Briefly, anterior pituitaries (pit.) were dissected out, rinsed and homogenized for 8 sec with a Micro Ultrasonic Cell Disrupter™, in ice-cold 50 mM Tris-HCl buffer, pH 7.4, containing 5 mM MgCl_2 and 5 mM EDTA (1 pit./0.5 ml). These homogenates were used immediately. Competition studies were performed using 35–50 pM [^125I-Tyr^10]hGRF(1–44)NH_2 as radio-ligand, 50 µl of homogenate (70 to 75 µg of protein), and increasing concentrations of Nε-CF-[Lys^31]hGRF or other GRF analogues (0–1000 nM) or with 2.4 µM rGRF(1–29)NH_2 for determination of non-specific binding, in a total volume of 300 µl of Tris-HCl buffer, pH 7.4, containing 5 mM EDTA, 5 mM MgCl_2 and 0.42% BSA. Incubations were carried out at 23° C. for 60 min and stopped by centrifugation (12,000 g, 5 min, at 4° C.). The radioactivity content in the pellet was measured by gamma counting. The affinity of hGRF(1–29)NH_2 was tested in each experiment to assess the validity of the assay and determine the relative affinity of the analogues.
75 to 97% of their initial concentration are recovered at the end of the binding assay (Gaudreau P. et al., J. Biol. Chem., 1992, 35:1864–1869). The Ligand computerized program was used to analyse competition curves of all the GRF analogues reported in Tables 4, 7 and 11, and to determine their IC$50$ and Hill coefficient. The Hill values indicate that all these peptides bind to the high and low affinity GRF binding sites found in the anterior pituitary.

[10] = target: T3, GRF receptor of rat adenopituitary; experiment: as above; remark: listed apart in the source
Experimental: as §1
75 to 97% of their initial concentration are recovered at the end of the binding assay (Gaudreau P. et al., J. Biol. Chem., 1992, 35:1864–1869). […]

[11] = Table 11, mean±SD of 2 or mean±SE of 3 experiments for analogues, mean±SE of 11 for hGRF(1-29)NH2
[12] = Table 12, mean±SD of 2 or mean±SE of 3 to 6 experiments, 10 for hGRF(1-29)NH2

CC[C@H](C)[C@H](NC(=O)[C@H](C)NC(=O)[C@H](CC(=O)O)NC(=O)[C@H](C)NC(=O)[C@@H](N)Cc1ccc(O)cc1)C(=O)N[C@@H](Cc1ccccc1)C(=O)N[C@H](C(=O)N[C@@H](CC(N)=O)C(=O)N[C@@H](CO)C(=O)N[C@@H](Cc1ccc(O)cc1)C(=O)N[C@@H](CCCNC(=N)N)C(=O)N[C@@H](CCCCN)C(=O)N[C@H](C(=O)N[C@@H](CC(C)C)C(=O)NCC(=O)N[C@@H](CCC(N)=O)C(=O)N[C@@H](CC(C)C)C(=O)N[C@@H](CO)C(=O)N[C@@H](C)C(=O)N[C@@H](CCCNC(=N)N)C(=O)N[C@@H](CCCCN)C(=O)N[C@@H](CC(C)C)C(=O)N[C@@H](CC(C)C)C(=O)N[C@@H](CCC(N)=O)C(=O)N[C@@H](CC(=O)O)C(=O)N[C@H](C(=O)N[C@@H](CCSC)C(=O)N[C@@H](CO)C(=O)N[C@@H](CCCNC(=N)N)C(N)=O)[C@@H](C)CC)C(C)C)[C@@H](C)O [hGRF(1-29)NH2, reference compound]
IC50 ([1]; Table 4, mean±SD of 2 experiments in triplicate for analogues, mean±SE of 29 experiments for hGRF(1-29)NH2): 2.67 ± 0.12 nM | IC50 ([2]; Table 5, mean±SD of 2 experiments (analogue), mean±SE of 10 (hGRF(1-29)NH2)): 36.7 ± 5.5 nM

Ala^8,Ala^9,Ala^15,Ala^22 ! hGRF(1-29)NH2 (from UniProt P01286) (peptide)
adenylate cyclase activity: EC50 of cAMP accumulation (column head prints IC50) [3]: 2.88 nM | adenylate cyclase activity: Relative activity (%) against hGRF(1-29)NH2 [3]: 1270% | Relative affinity (%) against hGRF(1-29)NH2 [4]: 774%

Ala^8,Ala^15,Ala^22 ! hGRF(1-29)NH2 (from UniProt P01286) (peptide)
adenylate cyclase activity: Relative activity (%) against hGRF(1-29)NH2 [3]: 1410% | Relative affinity (%) against hGRF(1-29)NH2 [4]: 960%

D-Ala^2,D-Tyr^10,D-Ala^15 ! hGRF(1-29)NH2 (from UniProt P01286) (peptide)
adenylate cyclase activity: Relative activity (%) against hGRF(1-29)NH2 [3]: 21% | Relative affinity (%) against hGRF(1-29)NH2 [4]: 18%

D-Ala^2,D-Tyr^10,D-Ala^15,D-Lys^21 ! hGRF(1-29)NH2 (from UniProt P01286) (peptide)
adenylate cyclase activity: Relative activity (%) against hGRF(1-29)NH2 [3]: 27% | Relative affinity (%) against hGRF(1-29)NH2 [4]: 8%

D-Ans^8,D-Leu^22 ! hGRF(1-29)NH2 (from UniProt P01286) (peptide)
adenylate cyclase activity: Relative activity (%) against hGRF(1-29)NH2 [3]: 55% | Relative affinity (%) against hGRF(1-29)NH2 [4]: 49%

H-YADAIFTNSYRKVLGQLSARKLLQDIMSRQK(X1)GESNQERGARARL-NH2 [Nε-5-carboxyfluoresceinyl-[Lys^31]hGRF(1-44)NH2]
affinity for adenopituitary GRF receptors (in words) [1]: high affinity | Hill coef. ([1]; Table 4): 0.55 ± 0.03 | Relative affinity ([1]; Table 4): 73 ± 27% | agonist character at the GRF receptor [2]: full GRF receptor agonist | Relative activity ([2]; Table 5): 55 ± 36% | solubility [5]: freely soluble | shelf life [6]: at least one year | stability ([6]; protected from light and maintained at 4° C.): stable | toxicity [7]: 100% non-toxic

Lys^22 ! hGRF(1-29)NH2 (from UniProt P01286) (peptide)
adenylate cyclase activity: EC50 of cAMP accumulation (column head prints IC50) [3]: 2.63 nM | adenylate cyclase activity: Relative activity (%) against hGRF(1-29)NH2 [3]: 1400% | Relative affinity (%) against hGRF(1-29)NH2 [4]: 1040%

Nε-5-carboxyfluoresceinyl-Lys^31 !hGRF(1-44)NH2 (from UniProt P01286) (peptide)
adenylate cyclase activity: EC50 of cAMP accumulation (column head prints IC50) [8]: 67 nM | adenylate cyclase activity: Relative activity (%) against hGRF(1-29)NH2 [8]: 55% | IC50 [4]: 3.65 nM | Relative affinity (%) against hGRF(1-29)NH2 [4]: 73%

YADAIFTAAYRKVLAQLSARKALQDIMSR-NH2 [Ala^8, Ala^9, Ala^15, Ala^22]
IC50 [1, 11]: 0.31 ± 0.14 nM | IC50 [2, 12]: 2.88 ± 1.01 nM

YADAIFTASYRKVLAQLSARKALQDIMSR-NH2 [Ala^8, Ala^15, Ala^22]
IC50 [1, 11]: 0.25 ± 0.07 nM | IC50 [2, 12]: 2.6 ± 0.7 nM

YADAIFTNSYRKVLGQLSARKKLQDIMSR-NH2 [Lys^22]
Hill coef. ([1]; Table 11): 0.62 ± 0.06 | IC50 [1, 11]: 0.23 ± 0.04 nM | Relative affinity ([1]; Table 11): 1043 ± 181% | biological activity compared to that of native GRF ([1]; rat adenopituitary): preserved or increased | IC50 [2, 12]: 2.63 ± 0.64 nM | Relative activity ([2]; Table 12): 1395 ± 339%

YADAIFTNSYRKVLGQLSARKLLQDIMSR-NH2 (ligand) [hGRF(1-29)NH2]
adenylate cyclase activity: EC50 of cAMP accumulation (column head prints IC50) [8]: 36.7 nM | adenylate cyclase activity: Relative activity (%) [8]: 100% | Relative affinity (%) against hGRF(1-29)NH2 [9]: 100% | IC50 [10]: 2.4 nM

{FITC}-YADAIFTNSYRKVLGQLSARKLLQDIMSR-NH2 [Nα-fluorescein-5-thiocarbamyl!hGRF(1-29)NH2]
IC50 [9]: 14 nM | Relative affinity (%) against hGRF(1-29)NH2 [9]: 19%

{FITC}-YADAIFTNSYRKVLGQLSARKLLQDIMSRQQGESNQERGARARL-NH2 [Nα-fluorescein-5-thiocarbamyl!hGRF(1-44)NH2]
Relative affinity (%) against hGRF(1-29)NH2 [9]: 19%
